These results are taken from PMC11338637.

In data set [1] the target is Hir complex (Hir1/Hir2/Hir3/Hpc2) (S. cerevisiae) (UniProt P32479). In words: SPR.
A further data set deals with ctHir3 (Chaetomium thermophilum, UniProt G0S723 1-2235). Briefly: fluorescence polarization.

In data set [1], “yeastAsf1/humanH3.3/humanH4 (from UniProt P32447 1-279; P84243 1-136; P62805 1-103) (complex)” gave a KD1 (heterogeneous ligand model, fast site of weak affinity) of 196 nM and a KD2 (heterogeneous ligand model, slow site of strong affinity) of 18 nM.

For the molecule TAGGGAGTAATCCCCTTGGCGG (ssDNA) [ssDNA probe], the Kd with ctHir3 is 531 nM.

In the case of AAAACAAAUAUGCAUAUUAUCGAGAGG (ssRNA) [ssRNA probe], in the data set with ctHir3, the dissociation constant Kd was found to be 292 nM.

One may read the Kd as the concentration at which binding is half-saturated. Low values mean tighter binding, high ones weaker binding.
